# In article doi:10.1101/2021.08.26.457770 (bioRxiv, 2021):
# Ends that are not written are not given here.
# T1: SspB protein (ClpX adaptor) (Escherichia coli, UniProt P0AFZ3 1-165)
# T1 sequence: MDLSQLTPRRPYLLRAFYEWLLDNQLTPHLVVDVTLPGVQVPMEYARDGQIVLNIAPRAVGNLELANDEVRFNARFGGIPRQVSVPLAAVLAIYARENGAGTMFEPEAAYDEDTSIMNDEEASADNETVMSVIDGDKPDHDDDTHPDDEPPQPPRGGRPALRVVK
# Target: T1, SspB protein (ClpX adaptor)
# Assay: MST
row,Binder,Kd
1,eGFP-AANDENYALAA (not fully specified) [eGFP-AANDENYALAA],80 nM
2,eGFP-AANDENYSENYADAS (not fully specified) [eGFP-AANDENYSENYADAS],300 nM
3,eGFP-AANDENYSENY (not fully specified) [eGFP-AANDENYSENY],100 nM
4,eGFP-AANDENYADAS (not fully specified) [eGFP-AANDENYADAS],330 nM
